Test results published in patent US20220112288A1 (published 2022).

Target: T1, human CD8 on human pan T cells (CD4-negative population) (human, UniProt P01732 22-235; P10966 22-210)
T1 construct: whole, on cells; Target is CD8 as it stands on primary human pan T cells
Test: flow cytometry, 20 nM antibody on human pan T cells, A647 anti-human IgG Fc; geomean ratio in CD4-negative population
Protocol: Cell binding. […] Percent CD8 positive population was calculated by percentage of CD8-positive cell count/live cell count.

T1 sequence (P01732 22-235, chain 1 of 2): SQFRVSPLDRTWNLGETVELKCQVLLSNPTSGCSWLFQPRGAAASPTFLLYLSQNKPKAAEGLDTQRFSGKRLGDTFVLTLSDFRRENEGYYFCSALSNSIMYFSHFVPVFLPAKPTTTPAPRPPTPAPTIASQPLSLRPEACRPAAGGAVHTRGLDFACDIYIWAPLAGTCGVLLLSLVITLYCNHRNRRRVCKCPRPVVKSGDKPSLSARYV
T1 sequence (P10966 22-210, chain 2 of 2): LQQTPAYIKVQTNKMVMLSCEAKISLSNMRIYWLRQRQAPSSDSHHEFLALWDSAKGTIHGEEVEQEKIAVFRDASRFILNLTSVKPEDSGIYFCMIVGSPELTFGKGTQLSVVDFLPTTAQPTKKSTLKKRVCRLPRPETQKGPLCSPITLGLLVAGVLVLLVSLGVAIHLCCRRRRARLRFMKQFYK

Row | Binder | Cell Binding to Human PanT Signal/Background (of CD4 negative population)
1 | CD8B340 (antibody, human IgG1, kappa, V domains shown, Full-length human IgG1, kappa) VH: QVQLQQPGAELVKPGASVRLSCKASGYTFTNYWMQWVQQRPGQGLEWIGEIDPSDTFTNYNQNFKDKATLTVDTSSSTAYLQLSSLTSEDSAVYYCARGDWDRDWYFDVWGTGTLVTVSA VL: not shown | 8 signal/background
2 | CD8B245 (antibody, human IgG1, kappa, V domains shown, Full-length human IgG1, kappa) VH: EFQLQQSGGGLVQPGGSLSLSCAAPGFTFTDYYMSWVRQSPGKALEWLALSRNKGNGYTTEYSASVKGRFTISRDNSQSILYLQMNVLRAEDSATYYCARTVTGTLFYYALDYWGQGTTVTVSS VL: DIQMTQSPASLSASVGETVTITCRASENIYSYLAWYQQKQGKSPQFLVYNAKTLAAGVPSRFSGSGSGTQFSLKINRLQPEDFGTYYCQHHYGTPLTFGDGTRLEIKR | 44 signal/background
3 | CD8B248 (antibody, human IgG1, kappa, V domains shown, Full-length human IgG1, kappa) VH: EVQLQQSGAELARPGASVKMSCKASGYTFTTYTMHWVKQRPGQGLEWIGYINPSSGYTKYNQKFTDKATLTADKSSSTAYMQLSSLTSEDSAVYYCARLWAYWGQGTLVTVSA VL: DVVMTQTPLSLPVSLGDQASISCRSSQSLVHSSGNTYLHWYLQKPGQSPKLLIYKGSNRFSGVSDRFSGSGSGTDFTLKISRVEAEDLGVYFCSQSTHVPFTFGSGTKLEMKR | 20 signal/background
4 | CD8B254 (antibody, human IgG1, kappa, V domains shown, Full-length human IgG1, kappa) VH: EVQLQQSGAELVKPGASVKMSCKTSGYTFSSYWITWVKQRPGQGLEWVGDIYPGSGSTNYNEKFKSKAALTVDTSSSTAFMQLNSLTSEDSAVYYCARESITTRITPFDHWGQGTTLTVSS VL: DVVMTQTPLSLPVSLGDQASISCRSSQSLVHSSGNTYLHWYLQKPGQSPKLLIYKGSNRFSGVSDRFSGSGSGTDFTLKISRVEAEDLGVYFCSQSTHVPFTFGSGTKLEIKR | 23 signal/background
5 | CD8B311 (antibody, human IgG1, kappa, V domains shown, Full-length human IgG1, kappa) VH: QVQLKESGPELVKPGASVKLSCKASGYTFTSYWMHWVKQRPGQGLEWIGMIHPNSGSTNYNEKFKSKATLTVDKSSSTAYMQLSSLTSEDSAVYYCARCGYDGAWFAYWGQGTSVTVSS VL: DIQMTQTTSSLSASLGDRVTISCSASQGISNCLNWYQQKPDGTVKLLIHYTSSLHSGVPSRFSGGGSGTHYSLTISNLEPEDIATYYCQQYSKVPYTFGSGTKLEIKR | 1 signal/background
6 | CD8B250 (antibody, human IgG1, kappa, V domains shown, Full-length human IgG1, kappa) VH: QVQLKESGPGLVAPSQSLSITCTVSGFSLSNYVVHWVRQSPGKGLEWLGVIWTDGSTDYNAAFISRLSISKDNSKSQVFFKMNSLQADDTAIYYCARNNGYFPAFFAYWGQGTLVTVSA VL: DIVMTQSQKFMSTSVGDRVSVTCKASQNVDTDITWYQQKPGQSPKALIYSASYRYSGVPDRFTGSGSGTDFTLTITNVQSEDLAEYFCQQYNSYPLTFGSGTKLEMKR | 61 signal/background
7 | CD8B186 (antibody, human IgG1, kappa, V domains shown, Full-length human IgG1, kappa) VH: QVQLQQSGAELAKPGASVKMSCKASGYIFTSYWMHWVKQRPGQGLEWIGNINPSSGYAVYNQKFKDKATLTADQSSSTAYIQLNSLTSEDSAVYYCARRVFYGDSWFAYWGQGTSVTVSS VL: DVQMIQSPASLSASVGETVTITCRASGNIHNYLAWYQQKQGKSPQLLVYNAKTLADGVPSRFSGSGSGTQYSLKINSLQPEDFGSYYCQHFWSTTWTFGGGTKLEIKR | 36 signal/background
8 | CD8B192 (antibody, human IgG1, kappa, V domains shown, Full-length human IgG1, kappa) VH: QVQLQQSGPVLVKPGASVKMSCKASGYTFTDYYMNWVMQSHGKSLEWIGVINPYNGGTTYNQRFTGKATLTVDKSSSTAYMELNSLTSEDSAVYYCARNYGAMDSWGQGTSVTVSS VL: DIQMTQSPASLSASVGETVTITCRASGNIHNYLAWYQQKQGKSPQLLVSNAKTLADGVPSRFGGSGSGTQYSLKINSLQPEDFGSYYCQHFWITPPTFGAGTRLEIKR | 22 signal/background
